# In patent publication US20210101970A1 (Pfizer, published 2021):
# T1: human CXCR5 (human, UniProt P32302 1-372)
# T1 construct: also called hCXCR5; C-X-C chemokine receptor type 5
# T1 sequence: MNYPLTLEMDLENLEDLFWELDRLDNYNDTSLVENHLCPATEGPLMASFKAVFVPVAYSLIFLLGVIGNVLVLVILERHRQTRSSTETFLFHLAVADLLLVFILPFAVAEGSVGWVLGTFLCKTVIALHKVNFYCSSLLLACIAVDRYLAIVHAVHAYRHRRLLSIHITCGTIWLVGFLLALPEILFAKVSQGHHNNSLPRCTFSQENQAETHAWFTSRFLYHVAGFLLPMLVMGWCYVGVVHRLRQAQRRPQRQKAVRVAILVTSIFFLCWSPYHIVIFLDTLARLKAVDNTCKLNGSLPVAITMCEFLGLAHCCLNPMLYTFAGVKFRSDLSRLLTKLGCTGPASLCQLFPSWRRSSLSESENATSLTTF
# T2: cynomolgus monkey CXCR5 (cynomolgus monkey, UniProt P32302 1-372 (human entry))
# T2 construct: also called cynoCXCR5; NHP CXCR5
# T2 chain: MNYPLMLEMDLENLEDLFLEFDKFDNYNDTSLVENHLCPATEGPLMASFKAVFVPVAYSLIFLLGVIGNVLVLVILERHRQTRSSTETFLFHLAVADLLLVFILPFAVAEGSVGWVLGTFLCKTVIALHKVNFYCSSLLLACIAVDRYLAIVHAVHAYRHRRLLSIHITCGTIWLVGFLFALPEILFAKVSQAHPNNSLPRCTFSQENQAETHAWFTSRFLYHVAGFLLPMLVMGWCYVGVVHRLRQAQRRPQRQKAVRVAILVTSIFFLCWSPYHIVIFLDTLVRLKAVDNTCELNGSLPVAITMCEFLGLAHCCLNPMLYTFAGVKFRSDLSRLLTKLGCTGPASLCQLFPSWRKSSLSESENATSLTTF
# Legend:
# human CXCR5 [1] = molecular target: T1, human CXCR5; assay: flow cytometry on Raji cells, gMFI titration
# Procedure: The apparent affinity of antibody binding to Raji cells was calculated as the EC₅₀ of equilibrium binding titration curves in which the geometric mean fluorescence intensity (gMFI) of the antigen binding population was quantified by flow cytometry and the results are shown in Table 2.
# human CXCR5 [2] = molecular target: T1, human CXCR5; assay: cell-based or functional assay
# human CXCR5 [3] = molecular target: T1, human CXCR5; assay: cell-based or functional assay; remark: listed apart in the source
# human CXCR5 [4] = molecular target: T1, human CXCR5; assay: flow cytometry, human PBMC B cells
# Procedure: (§1) The apparent affinity for cell surface CXCR5 of chimeric and humanized CXCR5 fucosylated and afucosylated antibodies was assessed. More specifically, to determine the apparent affinity of chimeric and humanized CXCR5 antibodies to CXCR5-expressing cells, cell binding experiments were performed on human and cynomolgus monkey peripheral blood mononuclear cells (PBMCs) and human tonsillar mononuclear cells (TMCs). The apparent affinity of CXCR5 mab binding to CXCR5+ cells (B cells, bona fide Tfh cells, and circulating Tfh-like cells) was calculated as the EC50 of equilibrium binding titration curves in which the geometric mean fluorescence intensity (gMFI) of the antigen binding population was quantified by flow cytometry.
# (§2) Following isolation, PBMCs were plated at a density of 1.0×10⁵ cells per well and CD4+ TMCs were plated at a density of 2.0×10⁵ cells per well in isolation buffer (PBS containing 1% FBS and 1 mM EDTA) in 96 well U-bottom plates. The plates were then centrifuged at 1500 rpm for 5 minutes at room temperature. PBMCs and CD4+ TMCs were resuspended in Fluorescence-activated cell sorting (FACS) buffer (PBS containing 1% FBS) containing human crystallized fragment Fc block (2 μL per well; Biolegend) and 4-fold serial dilutions of the antibodies (11-point dilution series, beginning at 5000 ng/mL for PBMCs and 312.5 ng/mL for CD4+ TMCs) and incubated on ice for 2 hours. PBMCs and CD4+ TMCs were then washed with FACS buffer 3 times and resuspended in 50-100 μL of FACs buffer containing fluorescent-conjugated antibodies for staining lymphocyte subsets and a fluorescent-conjugated secondary antibody against human Ig to detect CXCR5 monoclonal antibodies (mAbs). After incubation for 30 minutes at 4° C., PBMCs and CD4+ TMCs were washed with FACS buffer 2 times and resuspended in 125 μL of 0.5% paraformaldehyde (PFA) in PBS. Plates were stored at 4° C. until analysis by flow cytometry (BD LSRFortessa™ Cell Analyzer, BD Biosciences, Franklin Lakes, N.J.).
# (§3) The cell binding titration curves were generated by plotting the gMFI of the antigen binding population against the log of CXCR5 antibody concentration. EC₅₀ values were determined using GraphPad Prism® (version 6.0, GraphPad Software, Inc, San Diego, Calif.) nonlinear-regression curve fits and a sigmoidal log of agonist dose-response model, according to the following equation
# cynomolgus monkey CXCR5 [5] = molecular target: T2, cynomolgus monkey CXCR5; assay: flow cytometry, cynomolgus PBMC B cells
# Procedure: as §1, §2, §3
# human CXCR5 [6] = molecular target: T1, human CXCR5; assay: flow cytometry, human tonsil Tfh cells
# Procedure: Following centrifugation, red blood cell lysis was performed on the pellet using an ammonium chloride lysis buffer. Platelets were removed using a low speed centrifugation (200×g) for 10 minutes in Phosphate-Buffered Saline (PBS)/2% FBS/2 mM Ethylenediaminetetraacetic acid (EDTA). CD4+ T cells were purified out of the TMC mixture using an EasySep™ Human CD4+ T Cell Enrichment Kit, according to the manufacturer's instructions ([…] Technologies, Vancouver, BC, Canada).
# as §2, §3
# cynomolgus monkey CXCR5 [7] = molecular target: T2, cynomolgus monkey CXCR5; assay: cell-based or functional assay
binder,measurement,setting,value
"mouse 11G2 (antibody, V domains shown, mouse hybridoma mAb; also called 11G2 (hybridoma)) VH: EVKLVESGGGLVQPGGSLRLSCATSGFTFTDFYMSWVRQPPGRALEWLGFIRNKANGYTTEYSASVKGRFTISRDNSQSILYLQMNTLRAGDSATYYCVRVYGSTLHYWGQGTILTVSS VL: DVVVTQSPDSLAVSLGQRATISCRASESVEYHGTSLMHWYQQKPGQPPKLLIYAASNVESGVPARFSGSGSGTDFSLNIHPVEEGDIAMYFCQQSRKVPWTFGGGTKLEIK",EC50,human CXCR5 [1],968 pM
same,Ca2+ flux IC50,human CXCR5 [2],5930 pM
"mouse 5H7 (antibody, V domains shown, mouse hybridoma mAb; also called 5H7 (hybridoma)) VH: EVKLVESGGGLVQPGDSLRLSCATSGFTFTDFYMSWVRQPPGRALEWLGFIRNKANGYTTEYSASVKGRFTISRDNSQSILYLQMNTLRAGDSATYYCVRVYGSTLHYWGQGTILTVSS VL: DVVVTQSPDSLAVSLGQRATISCRASESVEYHGTSLMHWYQQKPGQPPKLLIYAASNVESGVPARFSGSGSGTDFSLNIHPVEEGDVSMFFCQQSRKVPWTFGGGTKLEIK",EC50,human CXCR5 [1],1010 pM
same,Ca2+ flux IC50,human CXCR5 [2],5560 pM
"mouse 41A10 (antibody, V domains shown, mouse hybridoma mAb; also called 41A10 (hybridoma)) VH: EVQLVESGGDLVKPGGSLKLSCAASGFTFRSYGMSWVRQTPDKRLEWVATISSGGTYTFYPDILKGRITISRDNAKNTLYLQMSNLKSEDTAMYYCARRGEDYRGALEHWGQGTSVTVSS VL: QIVLTQSPAVMSASPGEKVTMTCSASSSVNYIHWYQQKSGTSPKRWIYETSRLASGVPVRFSGSGSGTSYSLTISTMEAEDAATYYCQQWSSNPLTFGAGTKLELK",EC50,human CXCR5 [1],805 pM
same,Ca2+ flux IC50,human CXCR5 [2],14700 pM
"Afucosyl Chimeric 41A10 (antibody, human IgG1, kappa, V domains shown, afucosylated Fc glycan (Asn297)) VH: EVQLVESGGDLVKPGGSLKLSCAASGFTFRSYGMSWVRQTPDKRLEWVATISSGGTYTFYPDILKGRITISRDNAKNTLYLQMSNLKSEDTAMYYCARRGEDYRGALEHWGQGTSVTVSS VL: QIVLTQSPAVMSASPGEKVTMTCSASSSVNYIHWYQQKSGTSPKRWIYETSRLASGVPVRFSGSGSGTSYSLTISTMEAEDAATYYCQQWSSNPLTFGAGTKLELKR","ADCC Activity Average EC50, Human B Cells",human CXCR5 [3],54.5 pM
"Humanized 41A10 142/147 (antibody, human IgG1, V domains shown, also called h41A10 VH (XC147)/VL (XC142)) VH: EVQLVESGGGLVQPGGSLRLSCAASGFTFRSYGMSWVRQAPGKGLEWVATISSGGTYTFYPDILKGRITISRDNAKNSLYLQMNSLRAEDTAVYYCARRGEDYRGALEHWGQGTLVTVSS VL: DIQMTQSPSSLSASVGDRVTITCSASSSVNYIHWYQQKPGKAPKRLIYETSRLASGVPSRFSGSGSGTDYTLTISSLQPEDFATYYCQQWSSNPLTFGQGTKVEIK",EC50,human CXCR5 [4],153 pM
same,EC50,cynomolgus monkey CXCR5 [5],2050 pM
same,"ADCC Activity Average EC50, Human B Cells",human CXCR5 [3],1240 pM
"Humanized 41A10 142/148 (antibody, human IgG1, V domains shown, also called h41A10 VH (XC148)/VL (XC142)) VH: EVQLVESGGGLVQPGGSLRLSCAASGFTFRSYGMSWVRQAPGKGLEWVATISSGGTYTFYPDILKGRFTISRDNAKNSLYLQMNSLRAEDTAVYYCARRGEDYRGALEHWGQGTLVTVSS VL: DIQMTQSPSSLSASVGDRVTITCSASSSVNYIHWYQQKPGKAPKRLIYETSRLASGVPSRFSGSGSGTDYTLTISSLQPEDFATYYCQQWSSNPLTFGQGTKVEIK",EC50,human CXCR5 [4],152 pM
same,EC50,cynomolgus monkey CXCR5 [5],1960 pM
same,"ADCC Activity Average EC50, Human B Cells",human CXCR5 [3],1110 pM
"Afucosyl Chimeric 11G2 (antibody, human IgG1, kappa, V domains shown, afucosylated Fc glycan (Asn297), made in Potelligent CHOK1SV cells) VH: EVKLVESGGGLVQPGGSLRLSCATSGFTFTDFYMSWVRQPPGRALEWLGFIRNKANGYTTEYSASVKGRFTISRDNSQSILYLQMNTLRAGDSATYYCVRVYGSTLHYWGQGTILTVSS VL: DVVVTQSPDSLAVSLGQRATISCRASESVEYHGTSLMHWYQQKPGQPPKLLIYAASNVESGVPARFSGSGSGTDFSLNIHPVEEGDIAMYFCQQSRKVPWTFGGGTKLEIKR",EC50,human CXCR5 [4],8.09 pM
same,EC50,human CXCR5 [6],45.6 pM
same,"ADCC Activity Average EC50, Human B Cells",human CXCR5 [3],4.39 pM
same,"ADCC Activity Average EC50, Human Tfh Cells",human CXCR5 [3],0.07 pM
"Humanized 11G2 151/152 (antibody, human IgG1, V domains shown, also called h11G2 VH (XC152)/VL (XC151)) VH: EVQLVESGGGLVKPGGSLRLSCAASGFTFTDFYMSWVRQAPGKGLEWLGFIRNKANGYTTEYSAPVKGRFTISRDDSKNTLYLQMNSLKTEDTAVYYCVRVYGSTLHYWGQGTLVTVSS VL: DIQMTQSPSSLSASVGDRVTITCRASESVEYHGTSLMHWYQQKPGKAPKLLIYAASNVESGVPSRFSGSGSGTDFTLTISSLQPEDFATYYCQQSRKVPWTFGQGTKVEIK",EC50,human CXCR5 [4],13.1 pM
same,EC50,human CXCR5 [6],3.33 pM
same,EC50,cynomolgus monkey CXCR5 [5],10.1 pM
same,"ADCC Activity Average EC50, NHP B Cells",cynomolgus monkey CXCR5 [7],43.6 pM
same,"ADCC Activity Average EC50, Human B Cells",human CXCR5 [3],377 pM
"Humanized 11G2 153/156 (antibody, human IgG1, V domains shown, also called h11G2 VH (XC156)/VL (XC153)) VH: EVQLVESGGGLVQPGGSLRLSCATSGFTFTDFYMSWVRQAPGKGLEWVGFIRNKANGYTTEYSASVKGRFTISRDNAKNSLYLQMNSLRAEDTAVYYCVRVYGSTLHYWGQGTLVTVSS VL: DIQMTQSPSSLSASVGDRVTITCRASESVEYHGTSLMHWYQQKPGKAPKLLIYAASNVESGVPSRFSGSGSGTDFTLTISSLQPEDFATYFCQQSRKVPWTFGQGTKVEIK",EC50,human CXCR5 [4],8.88 pM
same,EC50,human CXCR5 [6],3.23 pM
same,EC50,cynomolgus monkey CXCR5 [5],7.06 pM
same,"ADCC Activity Average EC50, NHP B Cells",cynomolgus monkey CXCR5 [7],28.1 pM
same,"ADCC Activity Average EC50, Human B Cells",human CXCR5 [3],568 pM
"Humanized 11G2 153/155 (antibody, human IgG1, V domains shown, also called h11G2 VH (XC155)/VL (XC153)) VH: EVQLVESGGGLVQPGGSLRLSCAASGFTFTDFYMSWVRQAPGKGLEWVGFIRNKANGYTTEYSASVKGRFTISRDNAKNSLYLQMNSLRAEDTAVYYCARVYGSTLHYWGQGTLVTVSS VL: DIQMTQSPSSLSASVGDRVTITCRASESVEYHGTSLMHWYQQKPGKAPKLLIYAASNVESGVPSRFSGSGSGTDFTLTISSLQPEDFATYFCQQSRKVPWTFGQGTKVEIK",EC50,human CXCR5 [4],7.79 pM
same,EC50,human CXCR5 [6],4.82 pM
same,EC50,cynomolgus monkey CXCR5 [5],7.03 pM
same,"ADCC Activity Average EC50, NHP B Cells",cynomolgus monkey CXCR5 [7],20.7 pM
same,"ADCC Activity Average EC50, Human B Cells",human CXCR5 [3],463 pM
"Humanized 11G2 154/157 (antibody, human IgG1, V domains shown, also called h11G2 VH (XC157)/VL (XC154)) VH: EVQLVESGGGLVQPGGSLRLSCATSGFTFTDFYMSWVRQAPGKGLEWVGFIRNKANGYTTEYSASVKGRFTISRDNAKSSLYLQMNSLRAEDTAVYYCVRVYGSTLHYWGQGTLVTVSS VL: DIQMTQSPSSLSASVGDRVTITCRASESVEYHGTSLMHWYQQKPGKAPKLLIYAASNVESGVPSRFSGSGSGTDFTLTISSLQPEDFATYYCQQSRKVPWTFGQGTKVEIK",EC50,human CXCR5 [4],19.1 pM
same,EC50,human CXCR5 [6],7.24 pM
same,EC50,cynomolgus monkey CXCR5 [5],8.65 pM
same,"ADCC Activity Average EC50, NHP B Cells",cynomolgus monkey CXCR5 [7],54 pM
same,"ADCC Activity Average EC50, Human B Cells",human CXCR5 [3],517 pM
